Test results published in US20130244253A1.

Biological target: TGF-β receptors on cultured rat primary hepatic stellate cells
Assay: cell-based or functional assay

## purified recombinant NS3 protein (scNS4A-NS3 protease with trx-His-S tag) (enzyme)
  expression of the Collagen(I) α1 gene in cultured rat primary hepatic stellate cells: 6 times
